Data published in publication PMC6318295, “Plant HP1 protein ADCP1 links multivalent H3K9 methylation readout to heterochromatin formation” (Cell Research, 2018).

Assays:
[1] = biological target: ADCP1 Agenet 1/2 domain (amino acids 31-177) (Arabidopsis thaliana) (UniProt Q500V5); assay: ITC; H3 peptides (usually 1 mM) titrated into ADCP1 tandem Agenet domains (0.05-0.1 mM); 25 °C; 100 mM NaCl, 20 mM Tris-HCl, pH 7.5; MicroCal PEAQ-ITC; 'One Set of Sites' fitting model
[2] = biological target: ADCP1 Agenet 3/4 domain (amino acids 201-355) (Arabidopsis thaliana) (UniProt Q500V5); assay: as above
[3] = biological target: ADCP1 (Agenet Domain Containing Protein 1) Agenet 1/2, 31-177 (UniProt Q500V5); assay: ITC; details: reference: H3K9me2 peptide; sites S10
[4] = biological target: ADCP1 (Agenet Domain Containing Protein 1) Agenet 5/6, 376-517 (UniProt Q500V5); assay: ITC; details: reference: H3K9me2 peptide; sites S10
[5] = biological target: ADCP1 (Agenet Domain Containing Protein 1) Agenet 3/4, 201-355 (UniProt Q500V5); assay: ITC; details: reference: H3K9me2 peptide; sites S10
[6] = test system: ADCP1-H3K9me3 NA; assay: Aurora B treatment of phase-separated ADCP1-H3K9me3 NA; type: biochemical; details: kinase 5 µM, ATP 50 µM, 30 °C, 5 h
Protocol: (§1) Aurora B kinase, ATP (NEB, P0756S) and 10 × kinase buffer (CST, 9802S) were added to the nucleosome array. The final concentration of kinase was 5 µM and ATP was 50 µM. The mixture was incubated at 30 °C for 5 h. The reaction product was detected by the ph-H3S10 antibody (Abcam, ab5176).
(§2) ADCP1 Agenet domain 1-4 (1-355 aa) and Agenet 3-6 (201–517 aa) proteins were stored in 20 mM HepesNa, pH 7.4, 150 mM NaCl. A 1:1 molar ratio of Alex 488 (Invitrogen, A10254, dissolved in DMSO) was added into ADCP1 and the mixture was incubated at room temperature for 1 h. The excess dye was removed using MicroSpin G-50 column (GE Healthcare, 27533001). DAPI was added to native/K9me3/K9me3S10A 12× nucleosome array to label the DNA. Protein and nucleosome array were diluted to a proper concentration. Equal volume of nucleosome array and ADCP1 were mixed in a 384 well glass bottom plate (Cellvis, P384-1.5H-N). For Fig. 6a, the concentrations of three proteins were 30 μM. […] The sample volume in each well was 5–10 μL. After 1 h incubation at room temperature, images were captured by Nikon A1RMP confocal microscope with 100 × oil objective. For FRAP analysis, mean fluorescence intensities from five regions of interests (ROIs) of time-lapse images were computed. ROI-1 was the bleached droplet, ROI-2 was a non-bleached droplet, ROI-3 was a background region. NIS-element software was used for data analysis.

[7] = test system: H3(S10A)K9me3 NA with ADCP1; assay: Aurora B treatment of phase-separated ADCP1-H3(S10A)K9me3 NA; type: biochemical; details: kinase 5 µM, ATP 50 µM, 30 °C, 5 h
Protocol: as §1, §2

[8] = biological target: T1, ADCP1 Agenet 1/2 domain (amino acids 31-177) (Arabidopsis, UniProt Q500V5 31-177); assay: ITC
T1 chain: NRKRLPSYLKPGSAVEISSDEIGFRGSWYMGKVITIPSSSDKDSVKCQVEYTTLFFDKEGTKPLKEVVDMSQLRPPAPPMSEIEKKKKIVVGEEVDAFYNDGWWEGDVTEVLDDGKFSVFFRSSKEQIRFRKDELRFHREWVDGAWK

ADCP1 Agenet 3/4 domain (amino acids 201-355) (Arabidopsis thaliana), sequence (Q500V5 201-355): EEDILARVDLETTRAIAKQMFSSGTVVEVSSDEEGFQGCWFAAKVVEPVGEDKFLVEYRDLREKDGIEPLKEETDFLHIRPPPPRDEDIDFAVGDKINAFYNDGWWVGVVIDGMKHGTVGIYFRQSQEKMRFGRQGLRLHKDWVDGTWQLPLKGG

What does the source list for H3(1-15)K4me3 peptide?
Ka [1]: 19000 M⁻¹; stoichiometry N [1]: 1.12; Ka [2]: 24000 M⁻¹; stoichiometry N [2]: 0.971

With H3(1-15)K9me2 peptide as the molecule, how does the Ka [1] read?
The Ka was 333000 M⁻¹.

What about the stoichiometry N [1] of the same molecule?
The stoichiometry N was 1.01.

Which Ka [2] does the source give for H3(1-15)K9me2S10ph peptide here?
Its Ka is 10000 M⁻¹.

What about the stoichiometry N [2] of the same molecule?
Its stoichiometry N is 1.

For “histone H3 (synthetic H3 peptides) 1-15 (from UniProt P59226) H3K9me2S10ph peptide”, which “binding against the reference” value [3] is on record?
The value was “weaker”.

What about the “binding against the reference” value [4] of the same molecule?
The value was “weaker”.

And the “binding against the reference” value [5]?
The value was “weaker”.

B1: Aurora B: human Aurora B kinase, causes S10 phosphorylation (protein, UniProt Q96GD4 1-344, looked up)
Aurora kinase B: MAQKENSYPWPYGRQTAPSGLSTLPQRVLRKEPVTPSALVLMSRSNVQPTAAPGQKVMENSSGTPDILTRHFTIDDFEIGRPLGKGKFGNVYLAREKKSHFIVALKVLFKSQIEKEGVEHQLRREIEIQAHLHHPNILRLYNYFYDRRRIYLILEYAPRGELYKELQKSCTFDEQRTATIMEELADALMYCHGKKVIHRDIKPENLLLGLKGELKIADFGWSVHAPSLRRKTMCGTLDYLPPEMIEGRMHNEKVDLWCIGVLCYELLVGNPPFESASHNETYRRIVKVDLKFPASVPMGAQDLISKLLRHNPSERLPLAQVSAHPWVRANSRRVLPPSALQSVA
With B1 as the molecule, how does the “dissolution of phase transition by Aurora B, H3K9me3 NA” value [6] read?
Its value is “phase transition of the former but not the latter can be dissolved by Aurora B treatment”.

And the “dissolution of phase transition by Aurora B, H3(S10A)K9me3 NA” value [7]?
Its value is “not the latter can be dissolved by Aurora B treatment”.

B2: H3K9me3S10ph (peptide)
chain: ARTKQTARKSTGGKA
modifications: trimethyl-Lys9, phospho-Ser10 (mature H3 numbering; precursor 10 and 11). Taken as the ITC peptide of Fig. 1e with limits 1-15 from the paper's other H3K9me peptides; the text uses the same name for the Aurora B-treated MLA nucleosome array, which is a different molecule
For B2, which Kd [8] is on record?
Its Kd is 42.5 µM.
